Data: patent publication CN107042099A

Legend:
[1] = target: Myc-GST融合蛋白 (Myc-GST fusion protein); assay: indirect ELISA, Myc-GST coated at 5 μg/mL, HRP anti-His secondary antibody, heat test at 80℃
[2] = target: Myc-GST融合蛋白 (Myc-GST fusion protein); assay: indirect ELISA, Myc-GST coated at 5 μg/mL, HRP anti-His secondary antibody, heat test at 70℃
[3] = target: Myc-GST融合蛋白 (Myc-GST fusion protein); assay: indirect ELISA, Myc-GST coated at 5 μg/mL, HRP anti-His secondary antibody, heat test at 90℃

B1: 抗c-Myc标签单域重链抗体 (anti-c-Myc tag single-domain heavy-chain antibody) (VHH, not shown: small tags and cut ends)
VHH: QLQLVESGGGLVRPGESLRLSCDASSSEPPLLAYVVSWFRQVPGKEREGISCSSSSGVRNSYADSVKGRFTISRDNHKNTVYLQMNSLQAEDTAIYYCAAARLGARGCDFREDLQGTWGQGTQVTVSS
OD450 [1]: 1.2 OD450 | OD450 [2]: 1.4 OD450 | OD450 [3]: 1 OD450
